# In the DeepSol protein solubility set:
# Assay: soluble on expression in E. coli; label from the status in PepcDB or PDB records
row,Sequence,soluble on expression in E. coli
1,MAGEHIKVIYFDGRGRAESIRMTLVAAGVDYEDERISFQDWPKIKPTIPGGRLPAVKVTDDHGHVKWMLESLAIARYMAKKHHMMGETDEEYYSVEKLIGQAEDVEHEYHKTLMKPQEEKEKITKEILNGKVPVLFNMICESLKGSTGKLAVGDKVTLADLVLIAVIDHVTDLDKGFLTGKYPEIHKHRENLLASSPRLAKYLSNRPATPF,soluble
2,MAGHSHWAQIKHKKAKVDAQRGKLFSKLIREIIVATRLGGPNPEFNPRLRTAIEQAKKANMPWENIERAIKKGAGELEGEQFEEVIYEGYAPGGVAVMVLATTDNRNRTTSEVRHVFTKHGGNLGASGCVSYLFERKGYIEVPAKEVSEEELLEKAIEVGAEDVQPGEEVHIIYTVPEELYEVKENLEKLGVPIEKAQITWKPISTVQINDEETAQKVIKLLNALEELDDVQQVIANFEIPEEILQKVGLEHHHHHH,not soluble
3,MAGHVNGTCAPVIPKVGDEEDGVGQLVANLKEKGTNFVLLKKTPQILELQTILKDRFCGKINDFRYFCRKNLLILNKLLFCLKKRFSWNLDFKNPLIHKFSGQKRHFKRFCQIFSDFESKFRYFHKFPGPKRSTNHSDFVFNADRLMRLVIEECLNHLPFTEHTVTTPTGFKYEGIQFNRGNCGVSLCRSGEAMEVSLRQCCRCIRIGKILIGDEQKVLYARLLPDITSRRVLLLYPTIGSGTTVCKAIEVLKEARVPDENIYLVSLFISPTGLKNITRKYPYITVVASDITSLYPNHFSTSYFGAV,not soluble
4,MAGLVDRVSGARLDPAAEAEIRYLEAMIARLEAGEEDPEDFRVFRLKNGIYGIRGRPEHHMIRIKLPVGRITPEGLRVLADVAERYAENRLAHVTTRQAVQLHHVHRRDVPKVLRAVNAVGLTTREACGHSIRAITCCPYAGVSPEEPFDVTPYAEAAYRYFLRHPVGQNLPRKFKIAFEGCAADHARTPIHDIGVVAALEGGKRGFRVYVGGGLGAAPMSAELLEAFTPEEDLLPTMLAIVRLFDRYGNRKVLTQARLKFLVKKWGIAAFREAVREERRLVKLTASGEDLEAWAPPPEPEPPRLPSPPKKPFSFAPGFDAWRRTNLFKQKQEGFYTVTVRLPLGDITPEGLRALAAIAETYAAEVRSAISQNLLLRFVPEEALGGLYEALLEAGLALPEAHTLLDITRCPGADTCNLAITRSRGLAQALEAHLATLPLAQDPGAKAIGVKISGCPNSCGQHHIADIGFYGSSRKVGEREVPHYVLLLGGRTREGEARFGQVVGRLPARRVPEAVERILKRYLEERQNGESFQAYLDRVGAASFKPLLQELQEVPPYEEAPEFYQDLGAEGEAFSVQLGRGECAV,soluble
5,MAGSDPAAPAAPAAAAPDTVKILIAGGFGVGKTTMVGSVSEIAPLRTEEPLTAAGLDVDDLDGIAEKDATTVALDFGRITIGSELVLYLFGTPGQQRFWFMWNDLAIGALGAVVLIDVRRPESSFAAVDFFERRGIPFVIGVNGFHGLHPYTPEEIREALALPERAQVLLCDARERESCRDVLIALIDQLIAARLEHHHHHH,not soluble
6,MAHHHHHHMAALKNKIHRIGKRKGATLKDVSAWRWIKTAARHFKQEGKIFVPNCTEIMKSSHGRERAPQNPDWYYIRCAAVLRAIYLRPGVGYGGLSKRFGNKKNYGSRPEHTVTSSTGPLHWACKSLTKLGLVEPGAQSGQRLTRKGHKFADSLAFQVQIRKFGAST,soluble
7,MAHHHHHHMADQIYHKLINENIKMLCNDLLPNEKKDEKKKEYYNNMNINCSSKCEELCNNINDRLQKIKDIVHLRSTKANGILIETLNYIKEYIKEIEKYIQIFNKLIYEENRAYLFIEEIFNTLENQNQNIQKIYNICSKNIVITKNNNELILKNPKACSSLSYEFVNNLMNSGQQKNNNNNNNKKEQIVQQHNIENQGANYLN,not soluble
8,MAHHHHHHMADWQGWYQRMLDVHNRNVSLRCRICDLQRLDGNGVQFVDMQTERRLRILAQHRVGMGVLKLDADKYEDQADNVTFGTTKLSELLADARKAQLGEEYWPSVELKVRKPSGQSKAHYSLIDNERIEKRSRELYEKYRDAKKRSLFVTPMETWLEVKGMQVRKSVDNADEDGYTLDALQDMMDGDDEDKV,not soluble
9,MAHHHHHHMAHGAAQCTLAAPGCVYLTPEQEEQLVDRLYTQSLLQKEATLAELDARYYPVTASQTISQETLQKSVQRQVDVEMERRQQRRKEMDAMAVAKAMGHASGSRAAASKKTVTAEETDVSVRRLYDDALAQKKARKAESERLYAFHPEDLKSAKMSKAALQESVNRMSKPKKTEFAVAEVNKIYGL,soluble
10,MAHHHHHHMAKEVTTNHCNNSKWWKGRPYAKIPDGPAQRQAAVTISAILATAEATRLKHDNLKSTAAQAHSLAITAIKDAFYGKGETEAGDAFAYTKAEKCGRTTATGTAGAAIVEDLICLCTKGGGGQTTECYTSGPADVGKNKVGGVKVIVNDMIDHCPNISAELHLKPALITRRIAAFYAELGRQDGKKQYNKKSKNRGSGCNWMCSARS,not soluble
11,MAHHHHHHMAKLLPPPFHGYIRKMFFPLRNAASASRKCCLHTHVQQKNGMMKTTPLISKRSYFTSLYDTKTEKTKLMNEMDDLYDHILTSNWNDSVHLVLNVSIWEGILNSIEDKVKLYEQDEDIMKKKKIINEIFDVLFILEDLRDHVNELLEQSSRASGLAGTHILASFKIENMNEHIEFLKTKYDELLLKYPLYKYQIDMVLGKGLALLRQKYNFEWRHMHNFFF,not soluble
12,MAHHHHHHMALIQTAHDACSRKVHCVRKGYLNDPFVSFFEKDHTIVNSPLMNRGTWLRTTAFENCVRGFATAAGQPIQVINFGAGMDTLYFRLKHSDPQFPVQKFMELDLADLVAEKERIIKRHSEMHSLVGSQYVLVSCDLYDAKGVAKALKEHLHGGTPTIMIAEMVFVYIEGSVTTNLLRTVMSDVIEPGTKTMLVTYDAIQPFDRFGKVMVENLQHFGADFKGIGDFPTPEAHAGRCSELGFKAVKSVTMKNLYLGVPRQIQIRLNKLEMIDDWEEWNLMHEHYCFVVASTEDAPLPKLF,not soluble
13,MAHHHHHHMANDDPKEPQPAVLNPEVDQQDTSVNGDDGDAERDGGKDVPVFTPAGARVEVHPLVLLSLVDHYARVNAKVSQKRRVAGLLLGRHLSHPGGIQVLDINNSFAVPFDEDPQNPDVWFLDTNYAEEMFLMFRRVHPKVRIVGWYSAGPSCAVQPNDMLLHLLIADRFSLNPVYCIVNTDPNNKGVPVLAYTTVHGRDGARSLEFRNIPTHLGAEEAEEIGIEHLLRDLTDSTITTLSAQVQERELSLDHLGRVLQSIEEYLNDVAEGTMPISEDVLSVLQEVISLQPHIYHLKTSTDMVRHANDQAIAMFIAAIGRCVCTLYDVIANRRRIAREIQEVRARRERSLKEKLGNEQHKAKEAATEESRKEGAAKN,not soluble
14,MAHHHHHHMAPSELHKLSYWEEVYQGEKENYEEANIQPEEWFEENCDKIINWMSNHFSEEEKKEQVAILDVGCGNGLFLHKLHQRGFGNLCGFDFSASAIELAKKLFVGCGGEGEEDSRINRGEEPTDVYVQVLDIYNIEDEIKENSKLKKKYKLINDKGTFDIFFMNDKAQEYFKHVSFFFQVDTIFCLTSCNACKEELLSIVNHFNETNGKFQLTLFDEIRYESITFGGVKGQIITTLIFACS,soluble
15,MAHHHHHHMAQRVHYRRHNHYNTKSNKVRPVRTPGGKLTIHVVKKKAGKPKCADCKTAIQGVKALRPADNYRARRKNRTVARAYGGSICARCIRERIMRAFLFEEQKCVRQVLKEKKKQEKKVKKVKKEKKKVNAKEVKKTATDNKKAKKVADKKKGK,not soluble
16,MAHHHHHHMARTLLLNIQHHQPDLGLSEVDIELGMLAGLLHDVGHGPFSHLFEDVVSRRCGIEFNHEDMSEKIARRVLRDLVPQTHVDVVVGLMRGKALLGITYGEIISNKRNGIDVDRLDYFIRDSMCCFGKPTVDVRVNRLFNSARIVCEEGQWQLGFEQKLALSLREIFTLRAKLHKNVYQHQVTKAIGHMIGDVIHAAAPHFRVGGHTLVECAQDETLFLKLGDWILEAIEASEAPHLAEAHAILHRLRTRDIYRVAYSSALDITMRAPMAAVDWPAAILEHAHPSFPLNADDFIAEVVVINQGKGTEDPLESVLFFNPKKPSQPLTRLKPAEDLKHGSPLFTPLQFEERTLMVFERRPTNGAVQRACERLNADPKYAAFFTDSLPFYNTK,soluble
17,MAHHHHHHMASFNSLGSGAGDSAEAVTRLQEVLRDICATERRQEKTWLNVQPCVLNAVKLLATTAQVYAERVRQLEDVLQRLQQYTTVLVRDREVKEERYRLDAAAHREEADELWKRLLRLEAQQQEPSLQIDQRASEAFKASCKVAVEARVAPLQQELQGLRHRLKALTLSRPYSSHYNRHVRSSSVASNSSALTMRDHYYAGSDGVAASQHHHHSAASSSSTSSLLSLASSTASSLDRHEQYPRRGRIETTSAPAFTPRALASATAAASPSTQRMMREVQRLRRQWQHFLQSVPAALAQGKGSCRAGLRRRDISGSPSRRLSRLTSKGGRRDLTGGLSDVTRANGEGMESIRGSSPQPFYVPAHHPPSSSPTDAVLPKYSSGPTRARSGARATESSTALPASGRRVRWYWLGDAHSHFSTAVRRAENDFAAAKPLSERPQPALSGVSPALPWTECHAFDGRTDCWYSLGTWPTHRRHLREVERAVEEGASRNSGDVSLGWLKWTLSLVSWPDTSTMLVHRAGIYMVRVCLVRHCASASLCSGAGRAESAGHDCGSGGALALCMNGVAVAGLREVVTHALLYTHPATSPADSAAPWWVTRGRSRSTCAYAGNYCSAVDGAAHSPACASPGGSPSRRRFHRDIADATQRQRPCCEPAQLHTNTLTACLFLPAGATLQVRCRGLHNTKTIHEAFCELEYVV,not soluble
18,MAHHHHHHMASLKERDTVAPAEIVAGVTASGPAGISAEELHKVLNSSEHASVVVVDVRNADEYASFHIPGSINKPFQELNFAQLADEVAAHTNHAAHMLVFVSAQSPDVDDLAAREYINEYEKSHAATPTKDSVRVLLGGLYTWSQIYSA,soluble
19,MAHHHHHHMASVGRFVQTADPAVTALESPPLPTETRLWRQSPDCQSESDSNRVSGSVLDSVKSNGGPKHASTARLHASQDLPTSVTRFLCLSSSSNSAAAKDLRRQLLVVRDCCVALGNKVKGSELLLLGGSQLSRKVEAMADFNSCLGVIFAASLTFTGETEGVAKDTLCSVVEMLKSAQESGDEKVFRAAVVKIVNRILLCTPLRPPARNAAKETARKSAGKQEQHAEQEPKLEDECLDFLTVEDGVPVLLECVWKRWLRYFEDGYVRYVKKLMAEERQALEAAAAAAAADDYNGEEAQYVDGVSATTTQTISTVPLFTTCQDYWKSPASAYAQFCYILLAIFFVRTKDFSLNYLARVTKLVQYFTYQLEFEDGEPIAVRTDTDAEEDSAQSEDEDDDRTPPQQEGPRKEKQVHSLPMPEYDKAVTQRRFRMSRRSSSQGLVPTVVSFKKAEKPRRHCHKCFFTDALPGDLRPSVEAVRQEEAEAAARDSEEHSHLPVVRRSANLDLSEHSISPQREREQLDACDASMESVQGV,not soluble
20,MAHHHHHHMAVGKNKRTSKGKKGGKKKVTDVFTKKEWYDLKAPKMFLVRNFGKTLVTKTIGKKLATDSLKGRIYEVNLADLNNDEDQAHKKIKLSCDHIINRDCYTDFCGLSITRDKLCSLIRKGYTLIEGHTDVKTLDNYHLRMFCIAFTKKRQNQTKSTCYAQTSQIKKIRKKMVDIMTAEASKVLLKDLVKKFIPESIGKEIEKQCKKIYPLQNVLIRKVKILKRPKLDISKLMELHTDPKEESGKNVNALPESKEATNILTAELKH,not soluble
21,MAHHHHHHMAVSQLLEMKLITRPRANLTQENVNAMVEFDYELAKKAQIAVDNNLPVNFFDLEYIDKPEYLAQLLEEKNILEKTREEVLKREKGNYKTPEILKNYKRVEVPREWRQELEIDEKILKAQPGLKENIELQKIMHNYVQSKFKSKVPGQPQKKHVKG,soluble
